T1: FcγRIIa H (FcγRIIa type H, His at position 131), extracellular domain with C-terminal His tag (human, UniProt P12318 34-217)
T1 construct: extracellular domain; Expressed in FreeStyle293 cells; analyte in the Biacore assay; also called FcgRIIa H; 2aH; not shown: His tag at the C terminus
T1 sequence (looked up): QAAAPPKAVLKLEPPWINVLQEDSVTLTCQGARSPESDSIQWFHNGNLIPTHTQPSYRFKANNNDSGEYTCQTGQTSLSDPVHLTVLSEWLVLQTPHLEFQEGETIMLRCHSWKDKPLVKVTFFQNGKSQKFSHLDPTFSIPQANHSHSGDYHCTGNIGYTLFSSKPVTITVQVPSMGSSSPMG

T2: FcγRIIb, extracellular domain with C-terminal His tag (human, UniProt P31994 43-217)
T2 construct: extracellular domain; Expressed in FreeStyle293 cells; analyte in the Biacore assay; also called FcgRIIb; 2b; not shown: His tag at the C terminus
T2 sequence (looked up): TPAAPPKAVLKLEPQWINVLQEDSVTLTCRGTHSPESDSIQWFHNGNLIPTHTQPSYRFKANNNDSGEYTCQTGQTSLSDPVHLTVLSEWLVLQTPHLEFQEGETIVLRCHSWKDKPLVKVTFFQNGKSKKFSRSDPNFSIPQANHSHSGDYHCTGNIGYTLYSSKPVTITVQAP

T3: FcγRIIb (human, UniProt P31994 43-217)
T3 construct: extracellular domain; Soluble extracellular domain with C-terminal His tag, expressed in FreeStyle293 cells; also called FcgRIIb; 2b; not shown: C-terminal His tag
T3 sequence (looked up): T2 sequence (looked up)

T4: FcγRIIa H (human, UniProt P12318 34-217)
T4 construct: extracellular domain; Soluble extracellular domain with C-terminal His tag, expressed in FreeStyle293 cells; also called FcgRIIa H; 2aH; not shown: C-terminal His tag
T4 sequence (looked up): T1 sequence (looked up)

B1: GpH7-A5/GpH7-B3 variant S324_11K/GpL16-k0 (antibody, human IgG1, kappa)
heavy 1: not shown
heavy 2: not shown
light: DIVMTQSPLSLPVTPGEPASISCQASESLVHSNRNTYLHWYLQKPGQSPQLLIYKVSNRFSGVPDRFSGSGSGTDFTLKISRVEAEDVGVYYCSQNTHVPPTFGQGTKVEIERTVAAPSVFIFPPSDEQLKSGTASVVCLLNNFYPREAKVQWKVDNALQSGNSQESVTEQDSKDSTYSLSSTLTLSKADYEKHKVYACEVTHQGLSSPVTKSFNRGEC
notes: He Ab; IgG1; mutation in one H chain only; also called He Ab
B2: GpH7-A5/GpH7-B3 variant Y300_14T/GpL16-k0 (antibody, human IgG1, kappa)
heavy 1: not shown
heavy 2: not shown
light: B1 light
notes: as for B1
B3: GpH7-A5/GpH7-B3 variant Y300_12R/GpL16-k0 (antibody, human IgG1, kappa)
heavy 1: not shown
heavy 2: not shown
light: B1 light
notes: as for B1
B4: GpH7-A5/GpH7-B3 variant S324_19Q/GpL16-k0 (antibody, human IgG1, kappa)
heavy 1: not shown
heavy 2: not shown
light: B1 light
notes: as for B1
B5: GpH7-A5/GpH7-B3 variant S324_18N/GpL16-k0 (antibody, human IgG1, kappa)
heavy 1: not shown
heavy 2: not shown
light: B1 light
notes: as for B1
B6: GpH7-A5/GpH7-B3 variant Y300_13S/GpL16-k0 (antibody, human IgG1, kappa)
heavy 1: not shown
heavy 2: not shown
light: B1 light
notes: as for B1
B7: GpH7-A5/GpH7-B3 variant S324_16H/GpL16-k0 (antibody, human IgG1, kappa)
heavy 1: not shown
heavy 2: not shown
light: B1 light
notes: as for B1
B8: GpH7-A5/GpH7-B3 variant S324_12R/GpL16-k0 (antibody, human IgG1, kappa)
heavy 1: not shown
heavy 2: not shown
light: B1 light
notes: as for B1
B9: GpH7-A5/GpH7-B3 variant P238_03V/GpL16-k0 (antibody, human IgG1, kappa)
heavy 1: not shown
heavy 2: not shown
light: B1 light
notes: Heterodimerized anti-glypican-3 IgG1; alteration in the GpH7-B3 chain only; also called He Ab
B10: GpH7-A5/GpH7-B3 variant G236_09D/GpL16-k0 (antibody, human IgG1, kappa)
heavy 1: not shown
heavy 2: not shown
light: B1 light
notes: as for B9
B11: GpH7-A5/GpH7-B3 variant G237_15Y/GpL16-k0 (antibody, human IgG1, kappa)
heavy 1: not shown
heavy 2: not shown
light: B1 light
notes: as for B9
B12: GpH7-A5/GpH7-B3 variant G237_10E/GpL16-k0 (antibody, human IgG1, kappa)
heavy 1: not shown
heavy 2: not shown
light: B1 light
notes: as for B9
B13: GpH7-A5/GpH7-B3 variant G237_06M/GpL16-k0 (antibody, human IgG1, kappa)
heavy 1: not shown
heavy 2: not shown
light: B1 light
notes: as for B9
B14: GpH7-A5/GpH7-B3 variant G237_16H/GpL16-k0 (antibody, human IgG1, kappa)
heavy 1: not shown
heavy 2: not shown
light: B1 light
notes: as for B9
B15: GpH7-A5/GpH7-B3 variant G237_05P/GpL16-k0 (antibody, human IgG1, kappa)
heavy 1: not shown
heavy 2: not shown
light: B1 light
notes: as for B9
B16: GpH7-A5/GpH7-B3 variant G237_08L/GpL16-k0 (antibody, human IgG1, kappa)
heavy 1: not shown
heavy 2: not shown
light: B1 light
notes: as for B9

In one experiment the target is T1, FcγRIIa H (FcγRIIa type H, His at …). Put plainly: SPR Biacore, captured antibody, FcgR analyte; GpH7-A5/GpH7-B3/GpL16-k0 = 100.
With B1, the He/Con_2aH was 92.2 % of HeCon Ab.
Still for that read-out and setting: the result for B2 reads 94.1 % of HeCon Ab; that for B3, 55.4 % of HeCon Ab.
On the same count and under the same terms, the result for B4 reads 96 % of HeCon Ab; that for B5, 97.8 % of HeCon Ab; that for B6, 88.1 % of HeCon Ab.
On the same count and under the same terms, then B7, with 102 % of HeCon Ab; and B8, with 96.5 % of HeCon Ab.

The next experiment has as its target T2, FcγRIIb, extracellular domain with …. The experiment is described as above.
In the case of B1, the He/Con_2b is 68.6 % of HeCon Ab.
As for B2, the He/Con_2b is 55.6 % of HeCon Ab.
On the same count and under the same terms, the result for B3 reads 41.2 % of HeCon Ab.
On to B4, for which the He/Con_2b is 66.8 % of HeCon Ab.
On the same count and under the same terms, the result for B5 reads 81.1 % of HeCon Ab; that for B6, 53.9 % of HeCon Ab.
On the same count and under the same terms, then B7, with 83.5 % of HeCon Ab.
Still for that read-out and setting: then B8, with 63.1 % of HeCon Ab.

For the next experiment, the target named is T1, FcγRIIa H (FcγRIIa type H, His at …). Put plainly: SPR Biacore; He/Con_2aH divided by He/Con_2b (reference: FcgRIIb). A general note: Surface plasmon resonance follows binding to a sensor surface in real time, without labels.
Turning to B1, the “He_2aH/2b (IIaH/IIb)” value turned out to be 1.34.
For the molecule B2, the “He_2aH/2b (IIaH/IIb)” value was 1.69.
The same measure, in the same setting: then B3, with 1.34.
Still for that read-out and setting: then B4, with 1.44; and B5, with 1.21; and B6, with 1.64.
Same read-out and setting: the result for B7 reads 1.22.
Take B8: the “He_2aH/2b (IIaH/IIb)” value is 1.53.

A further experiment concerns the target T3, FcγRIIb. Kind of experiment: SPR (Biacore), antibody captured, FcγR as analyte; relative to HeCon Ab. As for the experimental part: (§1) The heterodimerized antibodies He Abs in which one of the H chains was introduced with an alteration were assayed for their binding activities to each activating FcγR and inhibitory FcγR according to the method described in Example 4. […] The activating FcγRs in FIGS. 26, 27, 28, and 29 are FcγRIa, FcγRIIa (R), FcγRIIa (H), and FcγRIIIa, respectively.
(§2) Analysis of interaction between objective antibody and the FcγR was carried out using Biacore T100 (GE Healthcare). HBS-EP+ (GE Healthcare) was used as the running buffer, and the measurement temperature was set to 25° C. Chips produced by immobilizing the antigen peptide by the amine coupling method to a Series S Sencor Chip CM5 (GE Healthcare), or alternatively, chips produced by allowing preliminarily biotinylated antigen peptides to interact with and immobilize onto a Series S Sensor Chip SA (certified) (GE Healthcare) were used. Antibodies of interest were captured onto an antigen peptide-immobilized chip, and allowed to interact to each FcγR diluted with running buffer. To regenerate and repeatedly use the chip, the antibodies captured on the chip were washed off by reacting 10 mM glycine-HCl, pH 1.5.
For the molecule B9, the He/Con_2b is 120 % of GpH7-A5/GpH7-B3/GpL16-k0 (=100).
Same read-out and setting: then B10, with 167 % of GpH7-A5/GpH7-B3/GpL16-k0 (=100); and B11, with 152 % of GpH7-A5/GpH7-B3/GpL16-k0 (=100).
On the same count and under the same terms, the result for B12 reads 114 % of GpH7-A5/GpH7-B3/GpL16-k0 (=100).
The same measure, in the same setting: then B13, with 130 % of GpH7-A5/GpH7-B3/GpL16-k0 (=100).
As to B14, the He/Con_2b was 55.2 % of GpH7-A5/GpH7-B3/GpL16-k0 (=100).
Still for that read-out and setting: the result for B15 reads 24.6 % of GpH7-A5/GpH7-B3/GpL16-k0 (=100); that for B16, 148 % of GpH7-A5/GpH7-B3/GpL16-k0 (=100).

Another experiment has as its target T4, FcγRIIa H. The experiment is described as above. How it is done: as §1, §2
Turning to B9, the He/Con_2aH is 89 % of GpH7-A5/GpH7-B3/GpL16-k0 (=100).
On the same count and under the same terms, then B10, with 89.8 % of GpH7-A5/GpH7-B3/GpL16-k0 (=100).
Consider B11, for which the He/Con_2aH is 25.4 % of GpH7-A5/GpH7-B3/GpL16-k0 (=100).
As for B12, the He/Con_2aH is 15.1 % of GpH7-A5/GpH7-B3/GpL16-k0 (=100).
B13: the He/Con_2aH is 17.8 % of GpH7-A5/GpH7-B3/GpL16-k0 (=100).
The same measure, in the same setting: the result for B14 reads 16.4 % of GpH7-A5/GpH7-B3/GpL16-k0 (=100); that for B16, 13.9 % of GpH7-A5/GpH7-B3/GpL16-k0 (=100).
